Drawing on the supplement of paper PMC10567573, this text covers protein stability index for 94 variants.

B1: C2CD2L (parent)
chain: LTLKVLRSSSCGDTELLGQATLPV
B2: DFFB (parent)
chain: TLVEAIKEQDGREVDWEYFYGLLF
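Also: lentivirally expressed fusions sorted by FACS into six bins by GFP to DsRed ratio, PSI derived from sequencing read proportions per bin multiplied by bin number.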

Variants of B1 are the subject of one data set. Briefly: protein stability index of a GFP-peptide fusion (GPS, HEK-293T) (PSI 1-6); higher = more stable. To be noted: c terminus: a fixed tail appended.
As for LTLKVLRSSSCGDMELLGQATLPV, the protein stability index was 2.03. Consider LTLKVTRSSSCGDTELLGQATLPV, for which the protein stability index was determined as 1.26. Take LTLKVCRSSSCGDTELLGQATLPV: the protein stability index was determined as 1.69.

For LTLKVHRSSSCGDTELLGQATLPV, the protein stability index was 2.13.

With LTLKVDRSSSCGDTELLGQATLPV, the protein stability index was 2.47. The same measure, in the same setting: the value for LTLKVLRSSSCGDTELLGQATRPV was 1.6; that for LTLKVLRSSSCGDTELLGQATIPV was 2.36; that for LTLKVLRSSSCGDTELLGQATTPV was 1.75.

With LTLKVLRSSSCGDTELLGQATVPV, the protein stability index is 2.75. On the same count and under the same terms, the value for LTLKVLRSSSCGDTELLGQATWPV was 2.21; that for LTLKVLRSSSCGDTELLCQATLPV was 2.07. LTLKVLRSSSCGDTELLVQATLPV: the protein stability index was 2.88.

Regarding ATLKVLRSSSCGDTELLGQATLPV, the protein stability index came out at 4.09. Turning to PTLKVLRSSSCGDTELLGQATLPV, the protein stability index worked out at 2.9. Consider HTLKVLRSSSCGDTELLGQATLPV, for which the protein stability index was determined as 2.24. The same measure, in the same setting: in the case of QTLKVLRSSSCGDTELLGQATLPV it was 2.96; in that of DTLKVLRSSSCGDTELLGQATLPV, 3.35; in that of TTLKVLRSSSCGDTELLGQATLPV, 2.04. In the case of NTLKVLRSSSCGDTELLGQATLPV, the protein stability index amounted to 2.97. As to LTLCVLRSSSCGDTELLGQATLPV, the protein stability index is 2.5. For the variant LTLVVLRSSSCGDTELLGQATLPV, the protein stability index stood at 2.8. Consider LTLSVLRSSSCGDTELLGQATLPV, for which the protein stability index turned out to be 1.18. LTLYVLRSSSCGDTELLGQATLPV: the protein stability index is 3.27. Take LTLKVLRSDSCGDTELLGQATLPV: the protein stability index came out at 1.72.

In the case of LTLKVLRSCSCGDTELLGQATLPV, the protein stability index is 1.76.

On to LTLKVLRSPSCGDTELLGQATLPV, for which the protein stability index was 1.71. As for LTLKVLRSRSCGDTELLGQATLPV, the protein stability index turned out to be 3.44. The same measure, in the same setting: the value for LTLKVLRSVSCGDTELLGQATLPV was 1.09. For the variant LTLKKLRSSSCGDTELLGQATLPV, the protein stability index worked out at 2.17. For the variant LTLKLLRSSSCGDTELLGQATLPV, the protein stability index was 2.75. LTLKPLRSSSCGDTELLGQATLPV: the protein stability index is 2.38. Consider LTLKVLRSSSCGNTELLGQATLPV, for which the protein stability index came to 2.85.

As to LTLKVLRSSSCGCTELLGQATLPV, the protein stability index was 3.28. Same read-out and setting: the value for LTLKVLRSSSCGWTELLGQATLPV was 3.58.

LTLKVLHSSSCGDTELLGQATLPV: the protein stability index stood at 2.61. The same measure, in the same setting: in the case of LTLKVLTSSSCGDTELLGQATLPV it was 2.88. The same measure, in the same setting: in the case of LTLKVLGSSSCGDTELLGQATLPV it was 1.37; in that of LTLKVLNSSSCGDTELLGQATLPV, 1.19. As to LWLKVLRSSSCGDTELLGQATLPV, the protein stability index was 2.99. For the variant LYLKVLRSSSCGDTELLGQATLPV, the protein stability index is 2.94. Take LTLKVLRNSSCGDTELLGQATLPV: the protein stability index was 3.13. Regarding LTLKVLRSSSCGDTELTGQATLPV, the protein stability index amounted to 1.92. Regarding LTLKVLRSSSCGDTELKGQATLPV, the protein stability index is 2.05. With LTLKVLRSSSCGDTELSGQATLPV, the protein stability index was found to be 1.28. Still for that read-out and setting: in the case of LTLKVLRSSSCGDTELMGQATLPV it was 1.11. Regarding LTLKVLRSSSCGDTELYGQATLPV, the protein stability index is 1.57. As to LTLKVLRSSSCGDTELQGQATLPV, the protein stability index stood at 2.1. Regarding LTLKVLRSSSCGDTELFGQATLPV, the protein stability index stood at 2.92. The same measure, in the same setting: in the case of LTLKVLRSSSCGDTELGGQATLPV it was 1.86; in that of LTLKVLRSSSCGDTELLGQAELPV, 1.58; in that of LTLKVLRSSSCGDTELLGQAQLPV, 1.58. In the case of LTLKVLRSSSCGDTELLGQAMLPV, the protein stability index was found to be 2.27. In the case of LTLKVLRSSSCGDTTLLGQATLPV, the protein stability index came out at 2.83. Take LTLKVLRSSSCGDTYLLGQATLPV: the protein stability index was 2.19.

Consider LTLKVLRSSVCGDTELLGQATLPV, for which the protein stability index is 3.73.

Regarding LTLKVLRSSMCGDTELLGQATLPV, the protein stability index was 5.18. Consider LTLKVLRSSTCGDTELLGQATLPV, for which the protein stability index is 3.38.

As to LTLKVLRSSQCGDTELLGQATLPV, the protein stability index is 1.78. LTLKVLRSSSCGDTELLGMATLPV: the protein stability index worked out at 3.83. In the case of LTMKVLRSSSCGDTELLGQATLPV, the protein stability index was determined as 1.46.

Turning to LTGKVLRSSSCGDTELLGQATLPV, the protein stability index came out at 2.16.

LTCKVLRSSSCGDTELLGQATLPV: the protein stability index is 1.68. In the case of LTRKVLRSSSCGDTELLGQATLPV, the protein stability index came out at 2.63. With LTYKVLRSSSCGDTELLGQATLPV, the protein stability index amounted to 1.59.

In the case of LTNKVLRSSSCGDTELLGQATLPV, the protein stability index stood at 3.56. In the case of LTLKVLRSSSCGDTELLGQHTLPV, the protein stability index worked out at 1.23. On to LTLKVLRSSSCGDTELLGQGTLPV, for which the protein stability index was 1.03.

As for LTLKVLRSSSCGDTELLGQETLPV, the protein stability index came out at 2.1. On the same count and under the same terms, the value for LTLKVLRSSSCGDTELLGQNTLPV was 2.49; that for LTLKVLRSSSCGDTELLGQMTLPV was 2.92; that for LTLKVLRSSSCGDTELLGQTTLPV was 1.79.

For the variant LTLKVLRSSSCGDTELLGQATLPK, the protein stability index was 1.85. As for LTLKVLRSSSCGDTELLGQATLPP, the protein stability index is 2.41.

With LTLKVLRSSSCGDTELLGQATLPD, the protein stability index is 1.64. For LTLKVLRSSSYGDTELLGQATLPV, the protein stability index came out at 3.16. Same read-out and setting: the value for LTLKVLRSSSHGDTELLGQATLPV was 1.63. As for LTLKVLRSSSEGDTELLGQATLPV, the protein stability index was found to be 1.66.

Regarding LTLKVLRSSSAGDTELLGQATLPV, the protein stability index came to 1.55. The same measure, in the same setting: in the case of LTLKVLRSSSKGDTELLGQATLPV it was 2.11.

As for LTLKVLRSSSCTDTELLGQATLPV, the protein stability index was determined as 1.82. LTLKVLRSSSCPDTELLGQATLPV: the protein stability index was 1.82.

Consider LTLKVLRSSSCVDTELLGQATLPV, for which the protein stability index was found to be 1.99. In the case of LTLKVLRSSSCKDTELLGQATLPV, the protein stability index turned out to be 2.95.

For the variant LTLKVLRSSSCHDTELLGQATLPV, the protein stability index is 1.97. For the variant LTLKVLRSSSCMDTELLGQATLPV, the protein stability index worked out at 3.71. For the variant LTLKVLRSSSCGDTEHLGQATLPV, the protein stability index was determined as 1.43. Still for that read-out and setting: the value for LTLKVLRSSSCGDTEILGQATLPV was 2.19; that for LTLKVLRSSSCGDTESLGQATLPV was 1.72.

Variants of B2 are the subject of another data set. The description is as above. To be noted: c terminus: a fixed tail appended.
Consider TLVEAIKEQDGREVDWEYFYGLAF, for which the protein stability index worked out at 1.86. Turning to TLVEAIKEQDGREVDWEYFYGLCF, the protein stability index was found to be 1.6. Consider TLVEAIKEQDGREVDWEYFYGLWF, for which the protein stability index stood at 2.21. On to TLVEAIKEQDGREVDWEYFYGLMF, for which the protein stability index was found to be 2.12. Still for that read-out and setting: in the case of TLVEAIKEQDGREVDWEYFYGLVF it was 1.92; in that of TLVEAIKEQDGREVDWEYFYGLIF, 2.24.
